In patent US20200376136A1:
Substitutions are numbered along the chain they refer to. Values belong to the binder of their own block, whether it stands above or below them.

What was measured:
[1] = molecular target: cynomolgus CD3 (cynomolgus monkey) (UniProt Q95LI5); assay: FACS titration on purified cynomolgus T cells
[2] = molecular target: cynomolgus CD3 (cynomolgus monkey) (UniProt Q95LI5); assay: cell-based or functional assay
[3] = molecular target: cynomolgus CD3 (cynomolgus monkey) (UniProt Q95LI5); assay: FACS titration of cynomolgus T cells

B1: BSSTEAP2/CD3-001 (bispecific antibody, IgG4, V domains shown)
VH 1: QVQLQQSGPGLVKPSQTLSLTCAISGDSVSSNRAAWNWIRQSPSRGLQWLGRTYYRSKWYNDYAVSLRSRITINPVTSKNQVALHMNSVTPEDTAVYYCARAGIVVVPGPETFYYYDHGLDVWGQGTTVTVSS
VH 2: EVQLVESGGGLVQPGRSLRLSCAASGFTFDDYSMHWVRQAPGKGLEWVSGISWNSGSKGYADSVKGRFTISRDNAKNSLYLQMNSLRAEDTALYYCAKYGSGYGKFYHYGLDVWGQGTTVTVSS
VL: DIQMTQSPSSLSASVGDRVTITCRASQSIRSYLNWYQQKPGKAPELLIHAASSLQSGVPSRFSGSGSGTDFTLTISSLQPEDFASYYCQQSYSAPPITFGQGTRLEIK
EC50 [1]: 7.27 nM
Cyno PBMC Proliferation [M] (donor) [2]: 4.59e-12 M

B3: BSSTEAP2/CD3-006 (bispecific antibody, V domains shown)
VH 1: B1 VH 1
VH 2: B1 VH 2 with A23V, G59D
VL: B1 VL
EC50 [1]: 7.99 nM
Cyno PBMC Proliferation [M] (donor) [2]: 1.53e-11 M

B5: BSSTEAP2/CD3-004 (bispecific antibody, IgG4, V domains shown)
VH 1: QVQLVESGGGVVQPGRSLRLSCVASGFTISSYGMNWVRQAPGKGLEWVAVISYDGGNKYSVDSVKGRFTISRDNSKNTLYLQMNSLRAEDSAVYYCARGRYFDLWGRGTLVTVSS
VH 2: EVQLVESGGGLVQPGRSLRLSCAASGFTFADYTMHWVRQGPGTGLEWVSDIGWSGGSLGYADSVKGRFTISRDNAKNSLYLEMNNLRPEDTALYYCVKDKSGYGKFQYGLDVWGQGTTVTVSS
VL: DIQMTQSPSTLSASVGDRVTITCRASQSISSWLAWYQQKPGRAPNLLISKASSLKSGVPSRFSGSGSGTEFTLTVSSLQPDDFATYYCQQYYSYSYTFGQGTKLEIK
EC50 [1]: 1.99 nM

Results, then the binder that gave them:

EC50 [1]: 17.3 nM
B2: BSSTEAP2/CD3-007 (bispecific antibody, V domains shown)
VH 1: B1 VH 1
VH 2: EVQLVESGGGLVQPGRSLRLSCAASGFTFADYTMHWVRQAPGKGLEWVSDISWNSGSIAYADSVKGRFTISRDNAKNSLYLQMNSLRTEDTAFYYCAKDSRGYGHYKYLGLDVWGQGTTVTVSS
VL: B1 VL

EC50 [3]: 1 to 40 nM
B4: CD3-VH-P (antibody, V domains shown)
VH: B1 VH 2 with A23V, G59D
VL: DIQMTQSPSSLSASVGDSVTITCRASQSINNYLNWYQQKPGKAPKLLIYTASSLLSGVPSRFSGSGSGTDFTLTISGLHPEDFATYFCQQSFSTPPITFGQGTRLDIK
